Results: the supplement of paper PMC10567573

B1: PPEF2 (parent)
chain: DHSGFISLDEFRQTWKLFSSHMNI
B2: P2RY14 (parent)
chain: KKIFKSHLKSSRNSTSVKKKSSRN

Variants of: B1
Experiment: protein stability index of a GFP-peptide fusion (GPS, HEK-293T) (PSI 1-6); higher = more stable
Settings: c terminus: a fixed tail appended
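Note: lentivirally expressed fusions sorted by FACS into six bins by GFP to DsRed ratio, PSI derived from sequencing read proportions per bin multiplied by bin number.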

Protein stability index of substitutions, site by site:
L17: P 1.55 | I 3.24 | R 1.62 | V 1.36 | Y 2.03 | S 2 | C 1.59 | D 2.27 | G 1.5 | Q 1.58 | F 3.02 | M 2.63 | E 2.11 | T 1.88 | N 1.87 | W 1.29 | H 1.66 | K 1.81 | A 2.07
H21: F 2.27 | Y 1.49 | L 1.74 | G 2.22 | Q 1.06 | I 2.54 | V 2.84 | M 1.49 | E 2.06 | D 1.91 | A 1.63 | T 2.09 | S 1.86 | C 2.9 | N 2.01 | W 2.02 | P 2.11 | K 1.63 | R 2.23
T14: V 1.93 | E 1.87 | S 2.14 | C 2.88 | R 2.38 | Q 2.08 | D 1.71 | Y 1.49 | F 1.83 | A 2 | G 1.69 | N 1.91 | P 2.17 | H 2 | L 1.66 | I 1.83 | W 1.39 | K 1.93 | M 1.85
F18: K 2.21 | A 1.96 | G 2.48 | V 1.91 | Y 2.56 | T 1.82 | E 1.88 | D 2.57 | N 2.12 | H 1.55 | I 2.51 | Q 1.72 | R 1.8 | M 1.64 | L 1.46 | W 1.87 | S 2.14 | C 2.02 | P 1.96
M22: Y 2.21 | W 2.49 | R 1.91 | N 1.62 | Q 1.88 | S 1.55 | A 1.88 | G 2.17 | K 2.1 | E 2.19 | V 1.51 | C 2.98 | P 2.6 | I 2.02 | H 1.61 | F 2.32 | D 2.41 | T 1.6 | L 1.79
R12: E 1.62 | A 1.87 | Q 1.38 | N 1.81 | L 1.53 | T 2.98 | C 1.74 | K 1.89 | W 2.39 | D 2.06 | F 3.28 | P 1.61 | H 1.86 | I 2.73 | V 2.88 | Y 2.69 | M 2.38 | S 2.04 | G 2.79
S20: G 2.92 | N 1.71 | Y 2.47 | F 2.44 | L 2.03 | M 2.81 | V 3 | K 1.81 | Q 1.83 | R 2.16 | D 2.15 | E 2.43 | A 2.14 | T 1.85 | I 2.75 | P 1.96 | W 3.78 | H 1.63
N23: H 2.16 | L 2.3 | V 3.85 | I 2.18 | K 1.96 | Y 2.57 | S 2.26 | E 2.82 | R 1.31 | P 1.84 | M 2.57 | F 3.35 | W 2.08 | G 1.73 | T 2.83 | Q 1.86 | C 2.72 | D 1.69
S19: D 1.56 | H 1.88 | K 1.85 | Q 2.02 | W 1.87 | I 2.22 | C 1.54 | M 1.78 | F 2.32 | P 1.82 | Y 1.7 | G 1.81 | R 1.7 | A 1.56 | L 1.46 | T 2.55 | E 1.3 | V 2.26 | N 1.07
W15: G 1.84 | K 2.36 | L 1.88 | C 2.39 | S 1.81 | I 1.77 | M 2.79 | P 1.81 | H 1.76 | N 2.06 | F 2.07 | Y 2.15 | A 1.67 | E 1.96 | T 2.58 | R 1.62 | V 2.1 | D 2.3 | Q 2.25
I24: V 2.01 | F 1.9 | M 2.04 | N 1.8 | Y 2.04 | P 1.87 | E 1.99 | C 1.55 | H 1.7 | K 1.79 | D 1.96 | L 1.9 | G 1.98 | R 1.63 | W 2.35 | S 1.58 | A 1.96 | Q 1.78 | T 1.89
Q13: I 3.27 | E 2.36 | F 3.91 | W 2.52 | R 2.03 | M 3.2 | G 1.96 | K 1.68 | Y 1.45 | A 1.73 | N 2.65 | H 1.87 | S 2.13 | D 1.61 | V 2.95 | L 3.59 | T 3.18 | P 2.35
K16: D 1.71 | P 2.07 | L 3.93 | N 1.69 | F 1.94 | T 3.38 | H 1.74 | V 2.6 | I 3.37 | M 1.01 | C 2.15 | Y 3.45 | Q 1.74 | G 1.32 | A 1.88 | W 3.62 | S 1.81 | R 2.02 | E 1.73
F11: V 2.07 | T 1.74 | Y 2.19 | W 1.64 | S 1.68

Variants of: B2
Experiment: as above
Settings: c terminus: a fixed tail appended

Protein stability index: each site, then its substitutions
F4: M 4.28 | H 4.07 | Y 3.67 | V 4.39 | I 4.3 | T 4 | E 4.45 | A 4.49 | G 4.56 | D 4.6 | R 4.48 | Q 4.71 | N 4.49 | K 4.47 | C 4.27 | W 3.96 | L 4 | P 4.58 | S 4.72
K2: N 4.13 | E 4.29 | A 3.91 | P 3.98 | Y 3.67 | L 3.2 | S 4.37 | C 3.88 | V 3.73 | F 3.63 | T 4.3 | I 3.35 | W 3.12 | M 3.53 | D 4.66 | G 4.12 | R 3.88 | Q 4.04 | H 4.01
I3: M 4.77 | N 4.63 | Y 4.39 | T 4.66 | L 4.23 | P 4.38 | V 4.04 | F 3.91 | R 4.44 | S 4.6 | K 4.18 | Q 4.14 | H 4.34 | A 4.18 | E 5.07 | W 3.79 | G 4.28 | C 4.27 | D 4.95
K5: I 3.55 | G 4.44 | D 4.16 | C 4.05 | F 4.01 | H 4.33 | L 3.76 | E 3.89 | A 4.33
K1: A 4.12 | V 3.5 | T 4 | I 2.88 | Y 3.58 | D 4.5 | C 3.51 | S 4.26 | H 4.63 | W 2.7 | R 3.42 | P 4.22 | Q 4.25 | E 3.97 | L 3.18 | G 4.51 | M 3.43 | N 4.4 | F 3.8
